Data taken from patent US20040202665A1, “Compositions and methods for therapeutic treatment” (priority 2002, published 2004).

B1: L32: scFv antibody fragment of SEQ ID NO:3, screened against a leukemia cell (protein, listed as Homo sapiens)
scFv: MKYLLPTAAAGLLLLAAQPAMAEVQLVESGGGVVRPGGSLRLSCAASGFTFDLNPKVKHMWVRQAPGKGLEWVSGINWNGGSTGYADSVKGRFTISRDNAKNSLYLQMNSERAEDTAVYYCARMRAPVIWGQGTLVTVSRGGGGSGGGGSGGGGSSELTQDPAVSVALGQTVRITCQGDSLRSYYASWYQQKPGQAPVLVIYGKNNRPSGIPDRFSGSSSGNTASLTITGAQAEDEADYYCNSRDSSGNHVVFGGGTKLTVLGAAAEQKLISEEDLNGAA
B2: Y1: human scFv antibody fragment of SEQ ID NO: 1, selected from a phage library on fixed human platelets (protein, listed as Homo sapiens)
scFv: MKYLLPTAAAGLLLLAAQPAMAEVQLVESGGGVVRPGGSLRLSCAASGFSFDDYGMSWVRQAPGKGLEWVSGINWNGGSTGYADSVKGRFTISRDNAKNSLYLQMNSLRAEDTAVYYCARMRAPVIWGQGTLVTVSRGGGGSGGGGSGGGGSSELTQDPAVSVALGQTVRITCQGDSLRSYYASWYQQKPGQAPVLVIYGKNNRPSGIPDRFSGSSSGNTASLTITGAQAEDEADYYCNSRDSSGNHVVFGGGTKLTVLGAAAEQKLISEEDLNGAA

What was measured:
[1] = tested on: MOLT-4 (T leukemia) cells; assay: Survival of MOLT-4 tumor-bearing mice after doxorubicin and Y1; format: in vivo; details: MOLT-4 tumor-bearing SCID mice; for survival of tumor-bearing mice (FIG. 1): 2 mg Dox/kg i.v. 1x/wk and/or 0.1 mg Y1 scFv/mouse i.v. 3x/wk, relative to control
Method: The present example examines the interaction between chemotherapy treatment and Y1 in the MOLT-4 tumor-bearing mice.
Initially, SCID mice (Jackson) were pretreated with 100 mg/kg CTX (Cytoxan-cyclophosphamid for injection, Mead Johnson). Five days after CTX injection, MOLT-4 (T leukemia) cells were inoculated intravenously (i.v.) through the tail vein with 2×10^7 cells. Mice were randomly divided into 5 treatment groups (13 per group), and they were treated, beginning 5 days after cell inoculation, as indicated in the table below. Tumor-bearing mice were treated for two weeks with sub-optimal dose of doxorubicin (Dox), in combination with Y1 given either concomitantly or after the Dox course of treatment. The response to the therapies was monitored as survival. As described above, the experimental groups were as follows: […]

platelets [2] = assay: Platelet aggregation; format: cell-based
platelets [3] = assay: Binding to platelets
leukemic cells = assay: Binding to leukemic cells
[4] = tested on: primary leukemia cells derived from either AML or multiple myeloma (MM) patients; assay: Affinity of Y1 to primary leukemia cells; format: binding

Molecule	survival of tumor-bearing mice (FIG. 1) [1]	mean survival time (MST) ([1]; sub-optimal dose 2 mg Dox/kg i.v., 2 doses, 1x/wk, beginning day 5 post inoculation, control 39.08±0.8 days) [days]	effect on platelet aggregation (platelets [2])	binding to platelets (platelets [3])	affinity of binding to leukemic cells relative to Y1 (leukemic cells)	affinity to primary leukemia cells relative to glycocalicin, fibrinogen-gamma prime, complement compound 4 and PSGL-1 epitopes [4]
COc1cccc2c1C(=O)c1c(O)c3c(c(O)c1C2=O)C[C@@](O)(C(=O)CO)C[C@@H]3O[C@H]1C[C@H](N)[C@H](O)[C@H](C)O1 [Dox, doxorubicin]	negative effect	33.5 ± 1.68	–	–	–	–
B1	–	–	does not affect platelet aggregation	does not bind platelets	approximately five times greater affinity than Y1	–
B2	dramatic effect	–	–	–	–	several magnitudes higher
